A short description of the data set: protein stability index of a GFP-peptide fusion (GPS, HEK-293T) (PSI 1-6); higher = more stable. To be noted: c terminus: a fixed tail appended.

± gives the standard deviation.
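Note: 24-mer peptide tiles fused after GFP, lentivirally expressed, FACS-sorted into six equal bins by GFP/DsRed ratio, decoded by Illumina sequencing, PSI is the read-weighted mean bin number.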

Take PMAEYNMPQYILREFKVTDARDGQ [PTPRD]: the protein stability index is 3.8 ± 0.24 (treatment: DMSO) and 3.75 ± 0.27 (treatment: MLN4924 1 uM, 8 h).
For FANEEEAKKFRKAVTDLLGRRQRK [WASL], the protein stability index (treatment: DMSO) came out at 3.15 ± 0.24 and the protein stability index (treatment: MLN4924 1 uM, 8 h) turned out to be 3.52 ± 0.27.
For MLKAEETCAPSVSYFKCVQKEVLP [CCND1], in that order: 3.52 ± 0.12 and 3.55 ± 0.24.
For GGPQRIPAHRFVLAAGSAVFDAMF [BTBD1], in that order: 2.52 ± 0.31 and 2.2 ± 0.56.
Taken in the same sequence, the figures for RLKRTRLGLDDFESLKVIGRGAFG [STK38L] were 2.49 ± 0.22 and 2.7 ± 0.31.
GVWAVIISHQQCWASTSPGTDLPL [TRIM15]: the protein stability index was found to be 2.75 ± 0.97 (treatment: DMSO) and 2.67 ± 0.18 (treatment: MLN4924 1 uM, 8 h).
For ISLFFLIIYMGSFMLMLLVLGIQV [CDS1], in that order: 3.18 ± 0.23 and 3.33 ± 0.11.
For MIVDVTPYMNPSPFTVSPNTHVSQ [CLCN6], in that order: 2.47 ± 0.17 and 2.8 ± 0.31.
For QSLLQPKSSSVDSELTSLCQSVLE [SMG5], the protein stability index reads like this: (treatment: DMSO) 3.88 ± 0.26; (treatment: MLN4924 1 uM, 8 h) 3.94 ± 0.21.
Taken in the same sequence, the figures for LMRAQRNYMVQTEDQYIFIHDALL [PTPRD] were 2.48 ± 0.46 and 2.41 ± 0.53.
Regarding MLQIPQEKSQAYPRRRRPGCYAYR [MYORG], the protein stability index reads like this: (treatment: DMSO) 3.22 ± 0.43; (treatment: MLN4924 1 uM, 8 h) 3.23 ± 0.23.
For KQIKAGAYDFPSPEWDTVTPEAKD [CAMK2A], in that order: 5.34 ± 0.26 and 5.27 ± 0.18.
As for ERNNIAVRKSRDKAKRRNQEMQQK [CEBPD], the protein stability index was determined as 3.79 ± 0.9 (treatment: DMSO) and 3.31 ± 0.37 (treatment: MLN4924 1 uM, 8 h).
For SSPDDKLLTSPRAINNLVLQGCSS [KLHL14], in that order: 3.99 ± 0.17 and 4.14 ± 0.23.
Taken in the same sequence, the figures for AVATASRLGPYVLLEPEEGGRAYQ [TRIB3] were 3.79 ± 0.37 and 3.71 ± 0.32.
DEVPGSQGSQASQAPPVPGPPPGA [NR2F2]: the protein stability index is, setting by setting: (treatment: DMSO) 5.45 ± 0.23; (treatment: MLN4924 1 uM, 8 h) 5.604 ± 0.036.
Turning to VITALKCHKYDRNIQVTGSAALFY [ZER1], the protein stability index was 2.84 ± 0.18 (treatment: DMSO) and 2.85 ± 0.47 (treatment: MLN4924 1 uM, 8 h).
For LNFQIEHHLFPTMPRHNYHKVAPL [FADS1], in that order: 1.98 ± 0.33 and 2.02 ± 0.51.
For SNNHHLMLEASEWATIEGLVELLQ [ZBED1], in that order: 2.66 ± 0.14 and 2.71 ± 0.48.
Taken in the same sequence, the figures for DSLEKTDDDKYKITLKYPHYFPVM [NLN] were 2.73 ± 0.27 and 2.7 ± 0.28.
GVPNASVIMQVPERIVVAGNNEDV [MFF]: the protein stability index (treatment: DMSO) worked out at 4.68 ± 0.72 and the protein stability index (treatment: MLN4924 1 uM, 8 h) came to 4.35 ± 0.31.
For PADGWKGERPRSEEDNELNLPNLA [GCH1], in that order: 5.33 ± 0.34 and 5.36 ± 0.35.
For RSSGSEGTPADTGDLSPGHGASAP [PWWP2B], in that order: 5.38 ± 0.34 and 5.35 ± 0.2.
For VETELQRRNEETPEEGQQPWLCGE [GDAP1], in that order: 5.38 ± 0.1 and 5.5 ± 0.15.
Consider WNFDFVTETPLEGDFAWERVRGLG [CDKN1A], for which the protein stability index reads like this: (treatment: DMSO) 2.54 ± 0.42; (treatment: MLN4924 1 uM, 8 h) 2.8 ± 0.39.
Taken in the same sequence, the figures for VYCGAGVQKEHEEYMKNLLKVGGI [PCMTD2] were 2.75 ± 0.22 and 2.9 ± 0.28.
Taken in the same sequence, the figures for SSLFDLSVLKLHHSLQQSEPDLRH [SERTAD1] were 3.23 ± 0.21 and 3.29 ± 0.3.
For MTTSHQPQDRYKAVWLIFFMLGLG [SLC29A1], in that order: 2.52 ± 0.61 and 2.41 ± 0.43.
In the case of FHCIETLVTTGANVNETDDWGRTA [ANKRD44], the protein stability index runs as follows: (treatment: DMSO) 2.62 ± 0.32; (treatment: MLN4924 1 uM, 8 h) 3.15 ± 0.36.
Turning to KWLSCGFMLEIVTPTSLSSLSNAV [FBXO33], the protein stability index runs as follows: (treatment: DMSO) 3.04 ± 0.57; (treatment: MLN4924 1 uM, 8 h) 3.57 ± 0.76.
Taken in the same sequence, the figures for EGVEIMLGVCASGLLIYRDRLRIN [EPB41L3] were 2.75 ± 2.1 and 2.12 ± 0.2.
Taken in the same sequence, the figures for PSSFPSSSSSSSSSCYPLIPSTPE [MAGEA10] were 4.32 ± 0.36 and 4.45 ± 0.13.
For HAPQISYTGPSSSGRFAGREWYYG [NCK2], in that order: 2.52 ± 0.17 and 2.8 ± 0.4.
Consider FMHENLYFTNRKVNSVCWASLNHL [DCAF4], for which the protein stability index came to 2.69 ± 0.48 (treatment: DMSO) and 2.46 ± 0.53 (treatment: MLN4924 1 uM, 8 h).
For LQKDEYRPDKALSEGDLKNAIRVH [PSD2], in that order: 4.56 ± 0.055 and 4.58 ± 0.16.
For ILDTAGQAEFTAMRDQYMRAGEGF [RIT1], in that order: 3.44 ± 0.29 and 3.6 ± 0.23.
For SMKASLEGNLAETENRYCVQLSQI [KRT17], in that order: 3.22 ± 0.34 and 3.51 ± 0.39.
Regarding ELRRRRYEYDHWDAAIHGFRETEK [ALKBH7], the protein stability index by setting is: (treatment: DMSO) 3.5 ± 0.39; (treatment: MLN4924 1 uM, 8 h) 3.56 ± 0.44.
Taken in the same sequence, the figures for AGFTGSGPIQLWQFLLELLSDKSC [ETS2] were 2.27 ± 0.19 and 2.12 ± 0.41.
Taken in the same sequence, the figures for YGQFTCEGCKSFFKRSVRRNLSYT [NR2F2] were 2.33 ± 0.12 and 2.33 ± 0.21.
For CCVDVKPISQEKIESERALISQCG [DUSP5], in that order: 3.69 ± 0.26 and 3.63 ± 0.22.
On to DRVILSSSTSCLMPSKLFAGLVHV [CRYL1], for which the protein stability index (treatment: DMSO) amounted to 2.27 ± 0.64 and the protein stability index (treatment: MLN4924 1 uM, 8 h) was 2.58 ± 0.49.
Taken in the same sequence, the figures for QAAKLLGSMEQVSSHFLEQTLDKK [INTS4] were 3.78 ± 0.12 and 3.88 ± 0.36.
Taken in the same sequence, the figures for LLQLPDTKVGSFMIRESETKKGFY [SLA] were 2.75 ± 0.25 and 2.95 ± 0.047.
For PEGQKVLFVTFLLIYMVTIMGNLL [OR4A15], in that order: 3.06 ± 0.36 and 3.24 ± 0.5.
With CQYEALVENNRRDVEAWFNTQTEE [KRT36], the protein stability index is, setting by setting: (treatment: DMSO) 2.86 ± 0.39; (treatment: MLN4924 1 uM, 8 h) 2.83 ± 0.35.
For QPPLSATVTLTVAVADSIPQVLAD [PCDHGA10], in that order: 2.56 ± 0.24 and 2.7 ± 0.36.
For TPSLLRFALASLLQSAPDVKGRVR [ZSWIM9], in that order: 2.5 ± 0.16 and 2.53 ± 0.34.
Taken in the same sequence, the figures for EELSVLEVFEGREDSILGDPKKLL [MAGEA3] were 4.38 ± 0.28 and 4.75 ± 0.23.
Regarding KPTEPSVPVQPLLPESLARSLLPS [FBF1], the protein stability index (treatment: DMSO) came out at 4.33 ± 0.11 and the protein stability index (treatment: MLN4924 1 uM, 8 h) was 4.43 ± 0.26.
Taken in the same sequence, the figures for SRELASMNLDIVDLLKKAKFHHSD [RHOBTB3] were 3.2 ± 0.2 and 3.09 ± 0.23.
For IDRMFPEMSIHLSRPNGTSAMLLV [MED27], in that order: 2.65 ± 0.71 and 2.75 ± 0.52.
Taken in the same sequence, the figures for SEEYRAPRPQSEESWDEEDKRNYP [CHGB] were 5.47 ± 0.19 and 5.42 ± 0.3.
Take WPSAKSAGWTLATLGEQGLPHQSH [SCNN1D]: the protein stability index stood at 3.36 ± 0.43 (treatment: DMSO) and 3.17 ± 0.4 (treatment: MLN4924 1 uM, 8 h).
For TGIIDSLTISPKAARVGLLQYSTQ [MATN2], in that order: 2.72 ± 1.3 and 2.43 ± 0.23.
For the sequence DALEDSLEEVAVQQTGDDDEVDDF [PBXIP1], the protein stability index came to 5.59 ± 0.28 (treatment: DMSO) and 5.67 ± 0.15 (treatment: MLN4924 1 uM, 8 h).
With YAADRNCMWSKKCSGVACLVKDNP [WASL], the protein stability index (treatment: DMSO) was determined as 3.08 ± 0.95 and the protein stability index (treatment: MLN4924 1 uM, 8 h) turned out to be 2.49 ± 0.3.
Taken in the same sequence, the figures for FGFFFGRTPLIKLSPKKTWEGFIG [CDS1] were 2.47 ± 0.48 and 2.18 ± 0.57.
For DTLFERATNSSWVVVFKALVTTHH [SNAP91], the protein stability index is 2.62 ± 0.55 (treatment: DMSO) and 2.71 ± 0.48 (treatment: MLN4924 1 uM, 8 h).
Regarding EHIKSLLIKNNSLPRKRQSLRSSS [INTS3], the protein stability index stood at 3.29 ± 0.17 (treatment: DMSO) and 3.38 ± 0.25 (treatment: MLN4924 1 uM, 8 h).
Taken in the same sequence, the figures for NEKQLHTLRTCYAANPRPDALMKE [ISL2] were 4.05 ± 0.43 and 4.15 ± 0.53.
Taken in the same sequence, the figures for THEEGSYLFWEFATDNYDIGFGVY [ACBD3] were 2.65 ± 0.48 and 2.15 ± 0.32.
SLENSLREVEARYALQMEQLNGIL [KRT18]: the protein stability index by setting is: (treatment: DMSO) 2.15 ± 0.23; (treatment: MLN4924 1 uM, 8 h) 2.52 ± 0.26.
Taken in the same sequence, the figures for EFETLYNEHKSCEEKSVKNTSIRV [CLK3] were 4.59 ± 0.36 and 4.77 ± 0.23.
Taken in the same sequence, the figures for QLGTLAGSKYYNVEAMYCYLRCIQ [SMG5] were 2.68 ± 0.29 and 2.3 ± 0.41.
In the case of QASEREAPSIEQRLQEVRESIRRA [FCHSD1], the protein stability index runs as follows: (treatment: DMSO) 5.06 ± 0.35; (treatment: MLN4924 1 uM, 8 h) 5 ± 0.31.
For VKLLVDLELSYGFENGQKAAVVHH [TOR1AIP2], in that order: 2.22 ± 0.26 and 2.3 ± 0.12.
Taken in the same sequence, the figures for CENFPEMATYLRYVRRLDFFEKPD [CSNK1G3] were 2.21 ± 0.25 and 2.59 ± 0.51.
QRLLFSGASDNSIIMWDIGGRKGR [WDFY1]: the protein stability index is, setting by setting: (treatment: DMSO) 3.16 ± 0.55; (treatment: MLN4924 1 uM, 8 h) 3.39 ± 0.46.
Taken in the same sequence, the figures for PALDIFGDLFESTPEVAAAPKPDA [SNAP91] were 4.57 ± 0.21 and 4.67 ± 0.27.
In the case of ETLEGREKAFIAHFQDNLHSVNRD [MED27], the protein stability index (treatment: DMSO) was 4.32 ± 0.22 and the protein stability index (treatment: MLN4924 1 uM, 8 h) was determined as 4.26 ± 0.2.
Take AGVSLSTLEELLPPNTRVLRVLPN [PYCR3]: the protein stability index reads like this: (treatment: DMSO) 2.79 ± 0.26; (treatment: MLN4924 1 uM, 8 h) 2.63 ± 0.23.

Values taken from the supplement of paper PMC10567573.
